Laboratory results from article PMC12699821, “STARD4 suppresses tumorigenesis and attenuates enzalutamide resistance via lipid metabolic reprogramming and AR stabilization in prostate cancer” (Journal of Experimental & Clinical Cancer Research : CR, 2025).

Molecular target: T1, GST-tagged AR (human (Gene ID 367 is the human gene), UniProt P10275 1-920)
T1 construct: androgen receptor, Gene ID 367, in vector pGEX-4T-1; also called GST-AR; source: BL21 (Rosetta) bacterial cells, purified (protein purification kit)
T1 sequence (looked up): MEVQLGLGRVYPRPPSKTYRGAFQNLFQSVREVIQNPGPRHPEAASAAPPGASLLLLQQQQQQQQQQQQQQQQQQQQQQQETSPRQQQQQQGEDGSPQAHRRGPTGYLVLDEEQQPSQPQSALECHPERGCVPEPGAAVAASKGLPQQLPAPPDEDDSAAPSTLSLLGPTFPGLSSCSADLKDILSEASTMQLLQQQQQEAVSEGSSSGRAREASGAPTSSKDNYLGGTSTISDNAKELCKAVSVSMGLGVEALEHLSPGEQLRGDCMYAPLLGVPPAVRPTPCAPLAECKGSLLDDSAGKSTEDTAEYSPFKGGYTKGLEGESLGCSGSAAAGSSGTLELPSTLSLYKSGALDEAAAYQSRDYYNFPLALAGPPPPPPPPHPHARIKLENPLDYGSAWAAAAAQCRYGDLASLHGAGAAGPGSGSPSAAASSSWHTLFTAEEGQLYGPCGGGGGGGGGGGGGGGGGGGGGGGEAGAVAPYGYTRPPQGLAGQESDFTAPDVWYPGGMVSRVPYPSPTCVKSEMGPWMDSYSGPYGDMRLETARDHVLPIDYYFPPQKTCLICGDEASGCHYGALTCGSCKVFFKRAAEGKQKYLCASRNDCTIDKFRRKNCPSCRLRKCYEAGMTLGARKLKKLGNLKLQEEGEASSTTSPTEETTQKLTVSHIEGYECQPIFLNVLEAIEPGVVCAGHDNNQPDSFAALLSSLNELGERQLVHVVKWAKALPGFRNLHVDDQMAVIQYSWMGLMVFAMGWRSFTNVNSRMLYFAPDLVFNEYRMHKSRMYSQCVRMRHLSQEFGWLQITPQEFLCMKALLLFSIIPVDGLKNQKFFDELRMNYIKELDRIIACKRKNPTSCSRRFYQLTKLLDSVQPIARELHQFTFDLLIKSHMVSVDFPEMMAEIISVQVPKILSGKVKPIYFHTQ
Assay: pull-down; purified GST-tagged protein immobilised on glutathione-Sepharose beads, incubated with His-tagged protein in PMSF-supplemented affinity isolation buffer, western blotting
Conditions: both partners purified

B1: His-tagged STARD4 (natural protein, human (Gene ID 134429 is the human gene), UniProt Q96DR4 1-205, looked up)
chain: MEGLSDVASFATKLKNTLIQYHSIEEDKWRVAKKTKDVTVWRKPSEEFNGYLYKAQGVIDDLVYSIIDHIRPGPCRLDWDSLMTSLDILENFEENCCVMRYTTAGQLWNIISPREFVDFSYTVGYKEGLLSCGISLDWDEKRPEFVRGYNHPCGWFCVPLKDNPNQSLLTGYIQTDLRGMIPQSAVDTAMASTLTNFYGDLRKAL
notes: STARD4, Gene ID 134429, vector printed as pGMLV; also called His-STARD4; source: BL21 (Rosetta) bacterial cells, purified (protein purification kit)
binding result: binds
